Test results: CN114014929A (JIANGSU QYUNS THERAPEUTICS CO LTD, dated 2022)

How the values were obtained:
[1] = target: T1, 人白介素-33 (human interleukin-33, recombinant) (human, UniProt O95760 112-270); test: cell-based or functional assay
T1 sequence: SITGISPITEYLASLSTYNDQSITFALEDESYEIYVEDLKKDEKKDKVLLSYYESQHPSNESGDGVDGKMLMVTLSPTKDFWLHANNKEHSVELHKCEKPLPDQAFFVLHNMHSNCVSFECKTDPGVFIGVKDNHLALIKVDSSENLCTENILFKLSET

[2] = target: T2, 天然人白介素-33 (natural human interleukin-33 from HFL-1 cell lysate) (human, UniProt O95760 1-270, limits assumed); test: cell-based or functional assay
T2 sequence (looked up): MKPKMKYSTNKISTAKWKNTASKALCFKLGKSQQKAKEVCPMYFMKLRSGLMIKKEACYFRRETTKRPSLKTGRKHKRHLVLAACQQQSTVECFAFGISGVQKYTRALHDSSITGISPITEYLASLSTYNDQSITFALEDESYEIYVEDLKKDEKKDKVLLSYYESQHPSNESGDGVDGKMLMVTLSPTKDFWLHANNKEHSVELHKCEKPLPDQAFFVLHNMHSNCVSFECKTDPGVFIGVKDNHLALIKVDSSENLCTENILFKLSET

中和人白介素-33诱导人全血释放IFN-γ, IC50 [1]: 16 ng/mL
中和人白介素-33诱导的KU812细胞释放IL-5 (IL-5 ELISA), IC50 [1]: 5.87 ng/mL
中和重组人白介素-33诱导HEK Blue IL-33细胞中NF-κB/AP-1信号转导 (SEAP, OD630nm), IC50 [1]: 6.67 ng/mL
中和天然人白介素-33诱导HEK Blue IL-33细胞中NF-κB/AP-1信号转导 (SEAP, OD630nm), IC50 [2]: 3.91 ng/mL
B1: QX007N(HZD78-70) (antibody, V domains shown)
VH: EVQLVESGGGLVQPGGSLRLSCAASGFSLSSYHMIWVRQAPGKGLEWVGVIYPNSNIYYATWAKGRFTISRDNSKNTLYLQMNSLRAEDTAVYYCARTIYVHVYSALSIWGQGTLVTVSS
VL: AFQMTQSPSSVSASVGDRVTITCQASESVLNEVSWYQQKPGKAPKLLIYFASKLASGVPSRFSGSGSGTDFTLTISSLQPEDFATYYCQQDWSMDNIDNAFGGGTKVEIKR
